The data set concerns MS2 coat protein. The data set can be described thus: apparent KD of MS2 coat protein; designed switch direction (-1 OFF switch, 1 ON switch): -1; higher = weaker reporter binding. In a few lines:
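Designed RNA switches sharing common flanks were transcribed on Illumina chips by stalled E. coli RNA polymerase. They were titrated with SNAP-549-labelled MS2 coat protein, from 0.7 or 1.5 nM doubling to 3 µM, in Tris-HCl pH 7.5 buffer with KCl, MgCl2, BSA, DTT, tRNA and Tween-20. Titrations ran without input, with 200 uM small-molecule ligand, or with an oligonucleotide input. The apparent KD of each design is the median over its clusters, after curve-fitting of normalised cluster fluorescence.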

Setting [1] is: Eterna round: R95, input ligand: FMN 200 uM.
The mark [2] stands for this setting: Eterna round: R95, input ligand: microRNA oligo, concentration not stated.
The mark [3] stands for this setting: Eterna round: R95, input ligand: none.
The mark [4] stands for this setting: input ligand: microRNA oligo, concentration not stated.

Turning to “CUCUUGUCAGGAUAUCAACGCCGCCCACAUGGGCAGCGAAAUGAGAAGGGACAUGAGGAUCACCCAUGUUAAAA [Retema] (puzzle: Exclusion 4)”, the “apparent KD of MS2 coat protein” value was 30.4 nM under setting [1], 161 nM under setting [2] and 218 nM under setting [3].

Take “CUCUUGUCAGGAUAUUAUGGACGAAGGCAGGGCCGCGUCAGUGAGAAGGGACAUGAGGAUCACCCAUGUAAAAU [Riintesoa] (puzzle: Exclusion 4)”: under setting [2], the “apparent KD of MS2 coat protein” value stood at 73.9 nM.

Turning to “CUGAACCCGGUAGGAUAUAUUGUGGGCAAGCGUGGAACGACAUGAGGAUCACCCAUGUAAUUUAGGUAGAAGGGCCGAGAGAUU [Excl-NG2-LRO12] (Eterna round: R96, puzzle: Exclusion NG 2)”, the “apparent KD of MS2 coat protein” value is 32.5 nM (input ligand: FMN 200 uM), 41.5 nM under setting [4] and 41.5 nM (input ligand: none).

With “CUGAGAUCAGGAUAUACAUGAGGAUCACCCAUGUAAAGUAGCUUGCGUACAGGCAGAUGUAGAAGGGAUUUCGG [Mod of JL 5 - Jieux - Exclusion 3] (Eterna round: R97, puzzle: Exclusion 3)”, the “apparent KD of MS2 coat protein” value was 29.7 nM (input ligand: FMN 200 uM) and 26.5 nM (input ligand: none).

In the case of “CUGAGCAGACGAAGAUCCAACAUGAGGAUCACCCAUGUCUCAAAAGCUUUUUGCUUGUCUUAUCCUUCCCUGCUCUC [Isbies] (puzzle: Sensor v3, turn-off variant 1)”, the “apparent KD of MS2 coat protein” value by setting is: under setting [1], 14.3 nM; under setting [2], 207 nM; under setting [3], 12.9 nM.

In the case of “CUGAGCAGACGGAGAUCCAACAUGAGGAUCACCCAUGUCUCAAAAGCUUUUUGCUCGUCUUAUUCUCCUCUGUUCUC [Ainre] (puzzle: Sensor v3, turn-off variant 1)”, the “apparent KD of MS2 coat protein” value is 14.3 nM under setting [1], 33.3 nM under setting [2] and 12.5 nM under setting [3].

For “CUGAGCUGAGGAUAUACAUGAGGAUCACCCAUGUUUUGUAGCUAGUGAAGAAGUAGAUGUAGAAGGCAGUUCGG [Mod of JL 25 - Jieux - Exclusion 3] (Eterna round: R97, puzzle: Exclusion 3)”, the “apparent KD of MS2 coat protein” value is 167 nM (input ligand: FMN 200 uM) and 72.8 nM (input ligand: none).

Take “CUGAUGUUAGGAUAUCAGGCGCCCGCCACUGGCAAGGCGCAUGAGAAGGGACAUGAGGAUCACCCAUGUAGUAA [Maquraan] (puzzle: Exclusion 4)”: under setting [2], the “apparent KD of MS2 coat protein” value turned out to be 21.5 nM.

As for “CUGCGUCGUGUUAGGAUAUCCAGCGGUGCGCGCCAGGAGAAGGAACAUGAGGAUCACCCAUGUAAACCGAUGGC [Aratte] (puzzle: Brourd's mod of Exclusion 4)”, the “apparent KD of MS2 coat protein” value under setting [2] was found to be 11 nM.

Regarding “CUGCUCCGUGUAGGAUAUCGCCGCACCACCCGGCGAGAAGGACAUGAGGAUCACCCAUGUAUGUUAUUAUCACGUGUGGCGCGA [Design 41] (Eterna round: R96, puzzle: Exclusion NG 1)”, the “apparent KD of MS2 coat protein” value was determined as 16.4 nM (input ligand: FMN 200 uM), 13.9 nM under setting [4] and 17.1 nM (input ligand: none).

Regarding “CUGCUGGAGCGUUGCUUUGGUCGUACAUGAGGAUCACCCAUGUAGGAUAUGGUAAAAUUUGCUUGCUAGAAGGAUAGAGUGGUC [salish99_ExNG3_r04_613] (Eterna round: R96, puzzle: Exclusion NG 3)”, the “apparent KD of MS2 coat protein” value runs as follows: (input ligand: FMN 200 uM) 117 nM; under setting [4], 63.5 nM; (input ligand: none) 64.6 nM.

Turning to “CUGCUGGAGCUUUGCUUUGGUCGUACAUGAGGAUCACCCAUGUAGGAUAUGGUAAGAUUUGCUUGCUAGAAGGAUAGAGUGGUC [salish99_ExNG3_r04_611] (Eterna round: R96, puzzle: Exclusion NG 3)”, the “apparent KD of MS2 coat protein” value came to 80.9 nM (input ligand: FMN 200 uM), 78.2 nM under setting [4] and 49.7 nM (input ligand: none).

Consider “CUGCUGGAGCUUUGCUUUGGUCGUACAUGAGGAUCACCCAUGUAGGAUAUGGUAGGCUUUGCUUACUAGAAGGAUAGAGUGGUC [salish99_ExNG3_r04_608] (Eterna round: R96, puzzle: Exclusion NG 3)”, for which the “apparent KD of MS2 coat protein” value (input ligand: FMN 200 uM) worked out at 160 nM, the “apparent KD of MS2 coat protein” value under setting [4] was found to be 76.4 nM and the “apparent KD of MS2 coat protein” value (input ligand: none) was 86.4 nM.

Take “CUGGCUUAGAGAGGAUAUGACAUUCAAGCCUACCCUGGCCACGGGCCACAUGAGGAUCACCCAUGUCAGAAGGCUCAGGCCAGA [Enorri] (Eterna round: R96, puzzle: Exclusion NG 2)”: the “apparent KD of MS2 coat protein” value is 61.7 nM (input ligand: FMN 200 uM), 25.5 nM under setting [4] and 32.8 nM (input ligand: none).

Regarding “CUGGGCGGAGGAUAUACAGGUUUAAUAUAAAUUAAAUUGGGACAUGAGGAUCACCCAUGUAGAAGGUUGUUUAG [-13.6, -11.8 kcal, 32% A] (Eterna round: R97, puzzle: Exclusion 2)”, the “apparent KD of MS2 coat protein” value (input ligand: FMN 200 uM) was 23.4 nM and the “apparent KD of MS2 coat protein” value (input ligand: none) is 22.1 nM.

As for “CUGGUCCGAGGAUAUAUGAUGUGAAACAUGAGGAUCACCCAUGUAAUAUUAUGGAAGUAAAUAGAAGGCGGACUAG [Mat - Exclusion 5 - JL mod - D34] (puzzle: Exclusion 5)”, the “apparent KD of MS2 coat protein” value amounted to 28.6 nM under setting [1], 49.5 nM under setting [2] and 37 nM under setting [3].

For the sequence “CUGGUCCGAGGAUAUAUUAAGUGAAACAUGAGGAUCACCCAUGUUAUUUAAUGGAUGUAAAUAGAAGGCGGACUAG [JL-ex5-3.12] (puzzle: Exclusion 5)”, the “apparent KD of MS2 coat protein” value is, setting by setting: under setting [1], 29.9 nM; under setting [2], 37 nM; under setting [3], 42.8 nM.

“CUGGUCCGAGGAUAUAUUAAGUGAAACAUGAGGAUCACCCAUGUUAUUUGAUGGAAGAAAAUAGAAGGCGGACUAG [Mat - Exclusion 5 - JL mod - D59] (puzzle: Exclusion 5)”: the “apparent KD of MS2 coat protein” value is, setting by setting: under setting [1], 29.9 nM; under setting [2], 86.9 nM; under setting [3], 62.5 nM.

With “CUGUACUGAGGAUAUACAUGAGGAUCACCCAUGUGAUGUAGUGCACGCGUACGUGUACGUAGAAGGCAGUACAG [Mat - Exclusion 3 - Eli Mod - D41] (Eterna round: R97, puzzle: Exclusion 3)”, the “apparent KD of MS2 coat protein” value runs as follows: (input ligand: FMN 200 uM) 54 nM; (input ligand: none) 20.3 nM.

On to “CUGUACUGAGGAUAUACAUGAGGAUCACCCAUGUGAUUCAGUGCACGCGUACGUGUACGUAGAAGGCAGUACAG [Mat - Exclusion 3 - Eli Mod - D37] (Eterna round: R97, puzzle: Exclusion 3)”, for which the “apparent KD of MS2 coat protein” value by setting is: (input ligand: FMN 200 uM) 750 nM; (input ligand: none) 42.5 nM.

For the sequence “CUGUACUGAGGAUAUACAUGAGGAUCACCCAUGUGCUUCAGCUAGGAAACUAGCAAAGGUAGAAGGCAGUACAG [Mat - Exclusion 3 - Eli Mod - D58] (Eterna round: R97, puzzle: Exclusion 3)”, the “apparent KD of MS2 coat protein” value was found to be 109 nM (input ligand: FMN 200 uM) and 14.5 nM (input ligand: none).

As for “CUGUGCACGCUGCGAUCCUACAUGAGGAUCACCCAUGUGGUCUGGUGGCGUGGGUCACCGGACUUGGCUCGUCUUGG [salish99_S_TOV1_R5_078] (Eterna round: R97, puzzle: Sensor, turn-off variant 1)”, the “apparent KD of MS2 coat protein” value (input ligand: FMN 200 uM) was found to be 129 nM and the “apparent KD of MS2 coat protein” value (input ligand: none) stood at 150 nM.

Consider “CUGUGCACGCUGCGAUCCUACAUGAGGAUCACCCAUGUGGUCUGGUGGCGUGGGUCACCGGACUUGGCUCGUCUUGU [salish99_S_TOV1_R5_079] (Eterna round: R97, puzzle: Sensor, turn-off variant 1)”, for which the “apparent KD of MS2 coat protein” value by setting is: (input ligand: FMN 200 uM) 79 nM; (input ligand: none) 90.7 nM.

With “CUGUGCACGCUGCGGUCCUACAUGAGGAUCACCCAUGUGGUCUGGUGGCGUGGGUCACCGGACUUGGCUCGUCUUGU [salish99_S_TOV1_R5_064] (Eterna round: R97, puzzle: Sensor, turn-off variant 1)”, the “apparent KD of MS2 coat protein” value by setting is: (input ligand: FMN 200 uM) 35.7 nM; (input ligand: none) 42.3 nM.

With “CUGUGUAGACAGGAUAUGCUGUACAAAAGUACAGCAGAAGGGUCUACAUGAGGAUCACCCAUGUAUACUUCAUG [)mei Ex6 B24] (Eterna round: R97, puzzle: Exclusion 6)”, the “apparent KD of MS2 coat protein” value reads like this: (input ligand: FMN 200 uM) 391 nM; (input ligand: none) 920 nM.

With “CUGUGUAGACAGGAUAUGCUGUACAAAAGUACAGCAGAAGGGUCUACAUGAGGAUCACCCAUGUGUACCUCAUG [)mei Ex6 B26] (Eterna round: R97, puzzle: Exclusion 6)”, the “apparent KD of MS2 coat protein” value is, setting by setting: (input ligand: FMN 200 uM) 21.2 nM; (input ligand: none) 106 nM.

For the sequence “CUGUUUUUCGCAGGAUAUGCUCCUCCAUUAUUUGCAGAAGGGCGUUAAACAUGAGGAUCACCCAUGUAUGGUAAUGACUAUUUC [JR_ExcNG1_Sub065] (Eterna round: R96, puzzle: Exclusion NG 1)”, the “apparent KD of MS2 coat protein” value by setting is: (input ligand: FMN 200 uM) 125 nM; under setting [4], 43.6 nM; (input ligand: none) 40.7 nM.

As to “CUGUUUUUCGCAGGAUAUGCUUCUCCUUUAUUAGCAGAAGGGCGUUAAACAUGAGGAUCACCCAUGUAUGGUAAUGAUAUUUUC [JR_ExcNG1_Sub060] (Eterna round: R96, puzzle: Exclusion NG 1)”, the “apparent KD of MS2 coat protein” value reads like this: (input ligand: FMN 200 uM) 145 nM; under setting [4], 52.3 nM; (input ligand: none) 55.8 nM.

Take “CUUAGACAUGAGGAUCACCCAUGUGAGGAUAUGAAAUUAAUUAAUUAUUAAUUAUUAAUCAGAAGGCACAUAUG [Mat - Mod of Hyphema D38] (puzzle: Exclusion 1)”: the “apparent KD of MS2 coat protein” value runs as follows: under setting [1], 79.8 nM; under setting [2], 43.6 nM; under setting [3], 41.3 nM.

With “CUUAGACAUGAGGAUCACCCAUGUGAGGAUAUGAUGCGAAUAAGUAAGUAAUAAAGCAUCAGAAGGCACAUAUG [Mat - Mod of Hyphema D28] (puzzle: Exclusion 1)”, the “apparent KD of MS2 coat protein” value is 235 nM under setting [1], 186 nM under setting [2] and 222 nM under setting [3].

These data come from the supplement of paper PMC9170038.
